Here are results for 167 variants from the RNAGym collection of RNA variant scans (doi:10.7554/elife.80360).

B1: CPEB3 Ribozyme (parent)
chain: GGGGGCCACAGCAGAAGCGUUCACGUCGCGGCCCCUGUCAGAUUCUGGUGAAUCUGCGAAUUCUGCUGU

In the data set the parent is B1. As to the kind of experiment: self-cleavage, relative activity (ratio to wild type); higher = more cleavage; co-transcriptional.
Regarding G5C U67C, the self-cleavage was 0.254.
The value for G5C U67G was 0.355.
Under G5A C63A stands 0.427; under G5A C63U, 0.915; under G5A G47A, 0.964.
The value for G5A G47C was 0.914; that for G4U U20A was 0.121; that for G4U U20C was 0.14.
Regarding G4U U20G, the self-cleavage came out at 0.0683.
The value for G5C G17A was 0.0588.
G5C G17C: the self-cleavage worked out at 0.0976.
Under G5A U21C stands 0.56; under G5A U21A, 0.837; under G5C A59G, 0.229.
For the variant G4U U64C, the self-cleavage turned out to be 0.602.
The value for G4U U64G was 0.589.
Regarding G4U U64A, the self-cleavage came out at 0.535.
The value for G5C C33A was 0.302.
The value for G5C C33G was 0.227; that for G5C C27U was 0.138; that for G5A U67C was 0.963.
Consider G5A U67G, for which the self-cleavage is 0.957.
The value for G5C C57A was 0.0507.
Under G5C C57G stands 0.098.
As to G4U G41C, the self-cleavage is 0.126.
Under G4U G28C stands 0.0704; under G4U U67A, 0.9.
G4U U67C: the self-cleavage stood at 0.946.
Under G5C U64G stands 0.105; under G5C U64A, 0.246; under G5C U64C, 0.262.
The value for G4U U26G was 0.3; that for G5A A15U was 0.355; that for G5A A15C was 0.263.
For the variant G5C G41C, the self-cleavage turned out to be 0.188.
Take G5C G41U: the self-cleavage is 0.186.
Under G5C G41A stands 0.194; under G5C U38G, 0.0921; under G5C U26G, 0.228.
The value for G5C U26A was 0.156; that for G5A C57U was 0.304; that for G5A C57G was 0.234.
For G5A C57A, the self-cleavage was 0.224.
Take G5C U55A: the self-cleavage came to 0.192.
Turning to G5C G31U, the self-cleavage was 0.143.
Turning to G5A A52G, the self-cleavage turned out to be 0.92.
The value for G5A A52C was 0.837; that for G5A A52U was 0.891; that for G5A U53G was 0.335.
Under G5A C18G stands 0.0833; under G5A C18U, 0.483.
The value for G4U U43G was 0.389; that for G4U U43A was 0.455; that for G5A G17U was 0.152.
With G5C C32G, the self-cleavage stood at 0.968.
Under G5A G41C stands 0.359; under G5A G41A, 0.512; under G5A G41U, 0.488.
The value for G5A C33G was 0.136.
Turning to G5A C33A, the self-cleavage amounted to 0.296.
Under G5U A8C stands 0.346; under G5U A8G, 0.228; under G5A A23U, 0.931.
With G5C A42U, the self-cleavage stood at 0.265.
Regarding G5C A42C, the self-cleavage came to 0.207.
As for G5A U44A, the self-cleavage worked out at 0.655.
As to G5A U44C, the self-cleavage was 0.858.
The value for G5A U44G was 0.631; that for G5A A16G was 0.811.
As for G5A A16U, the self-cleavage came out at 0.639.
Under G5A G50C stands 0.902.
For G5A G50A, the self-cleavage stood at 0.941.
For the variant G4U G58C, the self-cleavage stood at 0.457.
Under G4U G58A stands 0.377; under G5A U49A, 0.926.
The value for G4U U69A was 0.952.
The value for G5A U36A was 0.146.
Turning to G5C C45U, the self-cleavage was 0.266.
On to G5C C45G, for which the self-cleavage is 0.178.
Regarding G5C C12A, the self-cleavage stood at 0.141.
As for G4U G17A, the self-cleavage is 0.114.
Under G4U G30U stands 0.103.
Under G4U G30C stands 0.108; under G4U U44G, 0.384; under G4U U44C, 0.552.
The value for G4U U21A was 0.654.
On to G4U U21C, for which the self-cleavage was 0.4.
Under G5U A10U stands 0.581; under G5U A10C, 0.604.
Consider G5U A10G, for which the self-cleavage came out at 0.543.
As to G4U G56C, the self-cleavage turned out to be 0.339.
Regarding G4U G56U, the self-cleavage is 0.559.
Regarding G5C G14U, the self-cleavage amounted to 0.109.
The value for G5A C29U was 0.303.
Under G5A C29A stands 0.229; under G4U U38C, 0.525.
The value for G4U U38A was 0.73; that for G5A G19A was 0.12.
For the variant G5A G19C, the self-cleavage was determined as 0.0992.
Take G5C G28C: the self-cleavage was found to be 0.0894.
With G5C G28U, the self-cleavage was found to be 0.0856.
The value for G5A U26C was 0.853.
Under G5A U26G stands 0.611; under G5A U26A, 0.498; under G4U G50A, 0.752.
On to G5A A42U, for which the self-cleavage was found to be 0.71.
G5A A42G: the self-cleavage amounted to 0.812.
The value for G4U G14C was 0.205.
As for G4U G14U, the self-cleavage was determined as 0.241.
G5U A13G: the self-cleavage is 0.271.
The value for G5A C24U was 0.378; that for G5A C24G was 0.0961.
G5A C24A: the self-cleavage amounted to 0.341.
Under G5A U38G stands 0.129.
As for G5A U38A, the self-cleavage stood at 0.816.
Under G5A U38C stands 0.749.
Under G5A C7A stands 0.134; under G5A C7G, 0.0847.
Consider G5A C7U, for which the self-cleavage came to 0.501.
For the variant G4U G11C, the self-cleavage is 0.228.
The value for G4U G11A was 0.571; that for G4U G11U was 0.492.
The value for G5A G30U was 0.125; that for G5C C24U was 0.112; that for G5C C24G was 0.0631.
Under G4U U61C stands 0.174.
With G4U G19C, the self-cleavage came out at 0.0957.
Under G4U G19A stands 0.0808; under G4U G19U, 0.112; under G5A A51G, 0.849.
The value for G5A A51U was 0.859; that for G5A A51C was 0.82; that for G5C C6G was 0.0983.
As to G5C G37C, the self-cleavage is 0.103.
Under G5C G37A stands 0.119.
On to G5C G37U, for which the self-cleavage is 0.179.
Under G5C G30U stands 0.0983; under G5C G30A, 0.177; under G5C G30C, 0.124.
Under G5C U46C stands 0.267; under G5C U46A, 0.265; under G5C G47U, 0.289.
The value for G5C G47A was 0.201.
With G5C G47C, the self-cleavage amounted to 0.246.
Under G4U U49G stands 0.357; under G4U U53C, 0.323.
As to G4U U53G, the self-cleavage was determined as 0.226.
For G4U U53A, the self-cleavage is 0.412.
Under G4U G68U stands 0.928; under G5C C7G, 0.293.
The value for G5C C7A was 0.684; that for G5C G68A was 0.473; that for G5C G68U was 0.483.
Under G5C G68C stands 0.317.
With G5A A8G, the self-cleavage was 0.725.
Turning to G5A A8C, the self-cleavage worked out at 0.953.
Under G5A A8U stands 0.894.
As to G5C U36A, the self-cleavage came to 0.0886.
For G5C U36G, the self-cleavage is 0.458.
Under G5C U36C stands 0.244; under G5C G19U, 0.121; under G5C G19A, 0.126.
On to G5A A40G, for which the self-cleavage was 0.866.
With G5A A40C, the self-cleavage was 0.213.
Under G5C A40G stands 0.171; under G5C A40C, 0.213.
The value for G5C G56A was 0.158.
